Source: PMC6978808, “In Situ Structure of an Intact Lipopolysaccharide-Bound Bacterial Surface Layer” (Cell, 2020)
Values joined by “and” are separate entries in the source; they are usually repeats but may differ in a detail not shown here. Identical values can stand only once.

What was measured:
[1] = target: the molecule itself; assay: native MS; RsaANTD:PS sample after removal of Ca2+ on Zeba micro spin desalting columns
[2] = target: the molecule itself; assay: native MS; purified RsaANTD:PS complex with Ca2+; Q-Exactive UHMR; tandem MS (HCD 220 V) to assign the oligomers
[3] = target: the molecule itself; assay: cryo-EM structure; single-particle cryo-EM of the purified RsaANTD:PS complex, 3.7 Å; PS and Ca2+ bound

B1: N-terminal domain of RsaA (RsaANTD) (domain or fragment, Caulobacter crescentus)
chain: AYTTAQLVTAYTNANLGKAPDAATTLTLDAYATQTQTGGLSDAAALTNTLKLVNSTTAVAIQTYQFFTGVAPSAAGLDFLVDSTTNTNDLNDAYYSKFAQENRFINFSINLATGAGAGATAFAAAYTGVSYAQTVATAYDKIIGNAVATAAGVDVAAAVAFLSRQANIDYLTAFVRANTPFTAAADIDLAVKAALIGTILNAATVSGIGGYATATAAMINDLSDGALSTDNAAGVNLFTAYPSSGVSGSEN
notes: S-layer protein RsaA of Caulobacter crescentus (1026 residues), N-terminal domain; the introduction defines RsaANTD as residues 1-249; residues 2-243 are built in the cryo-EM model; Cleavage by TEV protease after Gln would leave Glu-Asn-Leu-Tyr-Phe-Gln; also called inner domain of the S-layer; source: C. crescentus rsaATEV250 strain
With B1 the “stoichiometry N” value [1] was 4, the “stoichiometry N” value [2] was 2 and the “stoichiometry N” value [3] was 21 and 20.
